Measured values from patent US12157773 (SYNTHEKINE, dated 2024).
Where a chain is given by its changes, count along the chain named.

T1: hIL27Rα ECD antigen (human, UniProt Q6UWB1 33-516)
T1 construct: Antigen of biopanning and PE-ELISA; also called ECD of the human IL27Rα; IL27Rα coated on the plate
T1 sequence: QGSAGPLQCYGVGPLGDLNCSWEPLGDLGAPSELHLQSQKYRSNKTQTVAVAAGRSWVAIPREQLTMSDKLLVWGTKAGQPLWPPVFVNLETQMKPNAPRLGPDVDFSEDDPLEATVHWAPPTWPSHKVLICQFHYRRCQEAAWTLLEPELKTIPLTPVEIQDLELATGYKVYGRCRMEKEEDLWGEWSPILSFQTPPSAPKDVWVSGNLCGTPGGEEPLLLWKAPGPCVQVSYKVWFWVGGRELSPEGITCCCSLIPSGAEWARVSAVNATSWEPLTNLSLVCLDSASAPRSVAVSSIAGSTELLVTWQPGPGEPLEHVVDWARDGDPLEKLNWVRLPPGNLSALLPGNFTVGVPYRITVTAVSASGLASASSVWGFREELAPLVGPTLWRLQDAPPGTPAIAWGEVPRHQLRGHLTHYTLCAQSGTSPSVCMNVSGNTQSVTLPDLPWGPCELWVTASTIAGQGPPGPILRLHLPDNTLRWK

T2: mIL27Rα ECD antigen (mouse, UniProt O70394 25-510)
T2 construct: Antigen of biopanning and PE-ELISA; The immunogen was made as a fusion of the ECD (residues 25-510 of the precursor) with the human IgG1 hinge and Fc; also called ECD of mouse IL27Rα; IL27Rα coated on the plate
T2 sequence: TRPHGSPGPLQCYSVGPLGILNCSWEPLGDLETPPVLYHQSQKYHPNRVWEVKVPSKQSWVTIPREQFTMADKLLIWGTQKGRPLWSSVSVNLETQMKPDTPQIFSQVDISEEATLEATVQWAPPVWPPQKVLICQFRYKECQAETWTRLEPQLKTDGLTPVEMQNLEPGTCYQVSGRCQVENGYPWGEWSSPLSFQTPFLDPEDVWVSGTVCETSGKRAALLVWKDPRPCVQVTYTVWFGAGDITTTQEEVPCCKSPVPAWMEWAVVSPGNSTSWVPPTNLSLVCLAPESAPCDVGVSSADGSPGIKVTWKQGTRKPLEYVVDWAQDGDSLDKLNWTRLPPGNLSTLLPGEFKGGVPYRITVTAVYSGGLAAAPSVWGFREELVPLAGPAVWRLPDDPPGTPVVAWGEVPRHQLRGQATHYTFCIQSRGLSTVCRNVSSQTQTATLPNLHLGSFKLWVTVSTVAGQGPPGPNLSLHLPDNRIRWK

B1: hIL27Ra VHH4 (VHH)
VHH: QVQLQESGGGLVQPGESLRLSCTASGFTFSNYAMSWVRQAPGKGLEWVSGINVAYGITSYADSVKGRFTISRDNTKNTLYLQLNSLKTEDTAIYYCVKHSGTTIPRGFISYTKRGQGTQVTVSS
notes: Camel VHH as periplasmic extract of a phage clone in the PE-ELISA; also called anti-human IL27Rα VHH; not shown: HA/His tag from the pMECS phagemid
B2: hIL27Ra VHH7 (VHH)
VHH: QVQLQESGGGLVQPGGSLRLSCAASGFTFSSYPMSWVRQAPGKGLEWISTISAGGDTTLYADSVKGRFTSSRDNAKNTLYLQLNSLKTEDTAIYYCAKRIDCNSGYCYRRNYWGQGTQVTVSS
notes: as for B1
B3: hIL27Ra VHH8 (VHH)
VHH: B2 VHH with L11S, P14V
notes: as for B1
B4: hIL27Ra VHH20 (VHH)
VHH: B2 VHH with I48V, A53S, I93M, R109K, N111S
notes: as for B1
B5: hIL27Ra VHH10 (VHH)
VHH: QVQLQESGGGSVQAGGSLRLSCRASGSTYSNYCLGWFRQITGKEREGVAVINWVGGMLYFADSVKGRFTVSQDQAKNTLYLQMNSLKPEDTAMYYCAAESVSSFSCGGWLTRPDRVPYWGQGTQVTVSS
notes: as for B1
B6: hIL27Ra VHH12 (VHH)
VHH: B5 VHH with G16E, L79V, Q82E, A98T
notes: as for B1
B7: hIL27Ra VHH23 (VHH)
VHH: B5 VHH with G26R, T28P, S30G, I40S, Q74H, L79V, Y80T
notes: as for B1
B8: hIL27Ra VHH16 (VHH)
VHH: B5 VHH with L79V, V101A
notes: as for B1
B9: hIL27Ra VHH22 (VHH)
VHH: B5 VHH with I40T, L79V
notes: as for B1
B10: hIL27Ra VHH11 (VHH)
VHH: B5 VHH with I40S, Q74H, L79V, Y80T, D114G
notes: as for B1
B11: hIL27Ra VHH17 (VHH)
VHH: QVQLQESGGGLVQPGGSLRLSCAASGFTFSLSGMSWVRQAPGKGLEWVSAISSGGASTYYTDSVKGRFTISRDNAKNMLYLQLNSLKTEDTAMYYCAKGGSGYGDASRMTSPGSQGTQVTVSS
notes: as for B1
B12: hIL27Ra VHH24 (VHH)
VHH: B11 VHH with L31H, A50T, S52N
notes: as for B1
B13: hIL27Ra VHH2 (VHH)
VHH: B11 VHH with M78I
notes: as for B1
B14: hIL27Ra VHH14 (VHH)
VHH: QVQLQESGGGSVQAGGSLRLSCVASGYVSCDYFLPSWYRQAPGKEREFVSIIDGTGSTSYAASVKGRFTASQDKGKNIAYLQMNSLKPEDTAMYYCKASCVRGRAISEYWGQGTQVTVSS
notes: as for B1
B15: hIL27Ra VHH13 (VHH)
VHH: B14 VHH with K74R, A105T
notes: as for B1
B16: hIL27Ra VHH5 (VHH)
VHH: B14 VHH with V23T, I51V
notes: as for B1
B17: hIL27Ra VHH18 (VHH)
VHH: B14 VHH with A105G
notes: as for B1
B18: hIL27Ra VHH3 (VHH)
VHH: B14 VHH with Q72E, I106V
notes: as for B1
B19: hIL27Ra VHH6 (VHH)
VHH: QVQLQESGGGLVQPGGSLRLSCAASGFSFSSYAMKWVRQAPGKGLEWVSTISSGGSSTNYADSVKGRFTISRDNAKNTLYLQLNSLKIEDTAMYYCAKAIVPTGATMERGQGTQVTVSS
notes: as for B1
B20: mIL27Ra VHH3 (VHH)
VHH: QVQLQESGGGSVQAGGSLRLSCAGSGYSLSNYCMGWFRQAPGQGREGVASLRFVSGATFYADSVKGRFTIAQDNAKNTLYLQMNSLKPEDTAMYYCGIKSRGICGGRLVDVDFGNWGQGTQVTVSS
notes: Camel VHH as periplasmic extract of a phage clone in the PE-ELISA; also called anti-mouse IL27Rα VHH; not shown: HA/His tag from the pMECS phagemid
B21: mIL27Ra VHH7 (VHH)
VHH: QVQLQESGGGSVQAGGSLRLSCAVSGDSTYSMGWFRQPPGKEREGVAAITKDITIHADSVKGRFTISKDNAKNTLYLQMNSLKPEDTAMYYCAAHRPYGPPLNPRWYTYWGQGTQVTVSS
notes: as for B20
B22: mIL27Ra VHH11 (VHH)
VHH: B21 VHH with K83R
notes: as for B20
B23: mIL27Ra VHH13 (VHH)
VHH: QVQLQESGGGSVQAGGSLRLSCAASGYSINRMGWFRQAPGKEREGVAAISIGGGRTYYADSVKGRFTISQDNAKNTVDLQMNSLKPEDTAMYYCAAGLVYGEAWLDSRHYNKWGQGTQVTVSS
notes: as for B20
B24: mIL27Ra VHH4 (VHH)
VHH: B23 VHH with R55Q
notes: as for B20
B25: mIL27Ra VHH12 (VHH)
VHH: B23 VHH with A14T, G33A, G54D, N75H
notes: as for B20
B26: mIL27Ra VHH1 (VHH)
VHH: QVQLQESGGGSVQAGGSLRLSCAASKNSNFMGWFRQAPGKEREGVAAMMTKNNNTYYADSVKGRFTISHDNAKNTVYLQMDSLKPEDTAVYYCAAVYRTRRLRVLEAANFDYWGQGTQVTVSS
notes: as for B20
B27: mIL27Ra VHH6 (VHH)
VHH: QVQLQESGGGSVQAGGSLRLSCAASGYTYSSYCMAWFRQAPGKEREGVAAIDSDGSTSYADSVKGRFTISKDNAKNTLYLQMNSLKPEDTAMYYCAAASGRCLGPGIRSLIWGQGTQVTVSS
notes: as for B20
B28: mIL27Ra VHH2 (VHH)
VHH: QVQLQESGGGSVQAGGSLRLSCTASGYTSSRYCMGWFRQTPGKKREGVAAIYTGGGTTFYHGSVKGRFTISQDNTTNTVYLQMHNLKPEDTAMYYCAAGPVTRACDEYNYWGQGTQVTVSS
notes: as for B20
B29: mIL27Ra VHH5 (VHH)
VHH: QVQLQESGGGSVQAGGSLRLSCAVSGDSTYSMGWFRQPPGKEREGVAAIAKDGITIHADSVKGRFTISKDNAKNTLYLQMNSLKPEDTAMYYCAAHRPYGPPLNPRWYTYWGQGTQVTVSS
notes: as for B20
B30: mIL27Ra VHH10 (VHH)
VHH: B29 VHH with A50G
notes: as for B20
B31: mIL27Ra VHH8 (VHH)
VHH: B29 VHH with A50P, K51T
notes: as for B20
B32: mIL27Ra VHH14 (VHH)
VHH: B29 VHH with A50T, K69G, S82N
notes: as for B20
B33: mIL27Ra VHH9 (VHH)
VHH: B29 VHH with N81S
notes: as for B20

Target: T1, hIL27Rα ECD antigen
Experiment: PE-ELISA, periplasmic extract on antigen-coated plate
Description: (§1) Upon completion of the biopanning of Example 3, three 96-well plates of individual phage clones were isolated in order to perform periplasmic extract ELISA (PE-ELISA) on IL27Rα coated plates to identify positive VHH binders that selectively bound […]. A 96-well plate was coated with IL27Rα and PBS under the same conditions. Next, wells were blocked at 37° C. for 1 h. Then, 100 µl of extracted antibodies was added to each well and incubated for 1 h. Subsequently, 100 µl of anti-tag polyclonal antibody conjugated to HRP was added to each well and incubated at 37° C. for 1 h. Plates were developed with TMB substrate. The reaction was stopped by the addition of H2SO4. Absorbance at 450 nm was read on a microtiter plate reader. […] Positive clones were sequenced, and sequences analyzed to identify unique clonotypes.

Row | Binder | binding result
1 | B1 | binds
2 | B2 | binds
3 | B3 | binds
4 | B4 | binds
5 | B5 | binds
6 | B6 | binds
7 | B7 | binds
8 | B8 | binds
9 | B9 | binds
10 | B10 | binds
11 | B11 | binds
12 | B12 | binds
13 | B13 | binds
14 | B14 | binds
15 | B15 | binds
16 | B16 | binds
17 | B17 | binds
18 | B18 | binds
19 | B19 | binds

Target: T2, mIL27Rα ECD antigen
Experiment: as above
Description: as §1

Row | Binder | binding result
20 | B20 | binds
21 | B21 | binds
22 | B22 | binds
23 | B23 | binds
24 | B24 | binds
25 | B25 | binds
26 | B26 | binds
27 | B27 | binds
28 | B28 | binds
29 | B29 | binds
30 | B30 | binds
31 | B31 | binds
32 | B32 | binds
33 | B33 | binds
